{"source": "patent US20170143798A1", "molecules": {"B1": {"name": "recombinant mouse IL-22 (ligand, UniProt Q9JJY9 34-179, looked up)", "chain": "LPVNTRCKLEVSNFQQPYIVNRTFMLAKEASLADNNTDVRLIGEKLFRGVSAKDQCYLMKQVLNFTLEDVLLPQSDRFQPYMQEVVPFLTKLSNQLSSCHISGDDQNIQKNVRRLKETVKKLGESGEIKAIGELDLLFMSLRNACV"}}, "key": {"[1]": {"target": "mouse IL-22 receptor (IL-22R1) on murine MIN6N8 β-cells and murine islets (mouse) (UniProt Q80XZ4)", "sequence (Q80XZ4 16-581)": "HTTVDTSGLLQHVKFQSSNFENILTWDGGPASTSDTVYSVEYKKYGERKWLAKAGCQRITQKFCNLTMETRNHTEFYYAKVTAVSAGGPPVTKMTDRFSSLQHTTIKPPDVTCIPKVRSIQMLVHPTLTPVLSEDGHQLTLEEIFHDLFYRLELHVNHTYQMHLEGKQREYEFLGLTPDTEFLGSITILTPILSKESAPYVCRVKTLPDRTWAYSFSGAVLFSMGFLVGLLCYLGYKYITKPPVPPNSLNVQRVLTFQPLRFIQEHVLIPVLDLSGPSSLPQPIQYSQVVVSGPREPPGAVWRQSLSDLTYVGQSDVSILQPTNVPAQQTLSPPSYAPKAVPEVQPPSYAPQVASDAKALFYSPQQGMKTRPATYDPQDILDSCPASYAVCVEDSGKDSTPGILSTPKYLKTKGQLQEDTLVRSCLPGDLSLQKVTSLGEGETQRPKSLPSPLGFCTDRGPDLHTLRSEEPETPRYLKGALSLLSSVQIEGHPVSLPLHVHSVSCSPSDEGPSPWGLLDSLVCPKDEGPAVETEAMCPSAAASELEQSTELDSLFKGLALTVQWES", "test": "cell-based or functional assay"}, "[2]": {"target": "T1, human IL-22 receptor (IL-22R1) on human LS174T cells and human islets (human) (UniProt Q8N6P7)", "T1 sequence (looked up)": "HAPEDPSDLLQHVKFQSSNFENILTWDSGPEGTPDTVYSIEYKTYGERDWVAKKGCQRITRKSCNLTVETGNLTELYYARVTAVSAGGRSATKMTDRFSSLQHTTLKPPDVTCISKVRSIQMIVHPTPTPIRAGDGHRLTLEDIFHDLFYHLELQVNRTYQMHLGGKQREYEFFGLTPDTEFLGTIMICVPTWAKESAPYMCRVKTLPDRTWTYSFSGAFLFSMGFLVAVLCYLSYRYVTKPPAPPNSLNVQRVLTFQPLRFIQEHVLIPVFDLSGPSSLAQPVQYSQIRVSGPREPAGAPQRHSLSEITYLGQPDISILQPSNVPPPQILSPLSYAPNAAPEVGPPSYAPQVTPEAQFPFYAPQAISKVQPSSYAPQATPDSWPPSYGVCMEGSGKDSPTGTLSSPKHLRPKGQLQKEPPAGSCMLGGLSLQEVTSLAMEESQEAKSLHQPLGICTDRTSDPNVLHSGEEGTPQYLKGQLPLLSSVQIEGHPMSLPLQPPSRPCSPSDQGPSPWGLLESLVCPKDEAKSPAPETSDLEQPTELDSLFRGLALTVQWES", "test": "cell-based or functional assay"}}, "data": [{"molecule": "recombinant human IL-22 (from UniProt Q9GZX6 34-179) (ligand)", "values": [{"measurement": "reduction of ER stress (ERAI-sXBP1 reporter) in murine MIN6N8 cells with 0.5 mM palmitate; amount needed against recombinant mouse IL-22", "setting": "[1]", "value": 16, "unit": "fold"}]}, {"molecule": "B1", "values": [{"measurement": "suppression of oxidative stress (nitrite production) in human LS174T cells with 0.5 mM palmitate; concentration needed against human recombinant IL-22", "setting": "[2]", "value": 64, "unit": "fold"}]}]}
